# In PMC10987677 (The EMBO Journal, 2024):
# T1: IFT54^CH (IFT54 residues 1-137) (human, UniProt Q8TDR0 1-137)
# T1 construct: IFT54 (IFT-B subunit), human, CH domain, residues 1-137; also called IFT54 CH domain; source: baculovirus system, purified (IgG Sepharose, released by TEV protease); not shown: ZZ, N-terminal, cleaved
# T1 sequence (looked up): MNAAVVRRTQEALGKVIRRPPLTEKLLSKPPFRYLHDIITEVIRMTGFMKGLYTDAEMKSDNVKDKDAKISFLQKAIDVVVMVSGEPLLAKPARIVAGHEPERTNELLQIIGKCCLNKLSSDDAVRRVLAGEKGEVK
# B1: ZZ-SNAP-GST-WDR60^355-449 (domain or fragment, human, UniProt Q8WVS4 355-449, looked up)
# chain: IEKEETDLENARADAYTASCEDDFEDYEDDFEVCDGDDDESSNEPESREKLEELPLAQKKEIQEIQRAINAENERIGELSLKLFQKRGRTEFEKE
# notes: WDR60/DYNC2I1, human, residues 355-449 of the N-terminal extension; released by TEV protease afterwards for SDS-PAGE; source: baculovirus system, immobilized on IgG Sepharose 6 resin and washed; not shown: ZZ, N-terminal, kept; SNAP, N-terminal, kept; GST, N-terminal, kept
# Target: T1, IFT54^CH (IFT54 residues 1-137)
# Test: pull-down; ZZ-SNAP-GST-WDR60^355-449 immobilized on IgG Sepharose 6; purified IFT54^CH at 4.6 µM flowed over in wash buffer (30 mM HEPES pH 7.4, 150 mM KCl, 1 mM EGTA, 1 mM DTT, 10% glycerol); TEV elution, SDS-PAGE, Sypro Red
# Conditions: both partners purified
binder,measurement,value
B1,binding result,binds
